Laboratory results from patent US20120231006A1 (Amgen, published 2012).
Positions count from the first letter of the chain named.

B1: mAb 2D2.1 (antibody, human IgG2, lambda, V domains shown)
VH: QVQLQQWGAGLLKPSETLSLTCAVYGGSFSGYYWSWIRQPPGKGLEWIGEIDHSGRINYNPALKSRLTISVDTSKNQFSLKLSSVTAADTAVYYCARAGSGGYEDWFDPWGQGTLVTVSS
VL: QSVLTQPPSVSGAPGQRVTISCTGSSSNIGAGYNVHWYQQFPRTDPKLLIYVYNIRPSGVPDRFSGSRSGTSASLAITGLQTEDEADYYCQSYDSSLSGVVFGGGTKLTVLG
notes: fully human IgG2 lambda, Campaign 1; also called mAb 2D.1
B2: mAb 2B7.1 (antibody, human IgG2, V domains shown)
VH: B1 VH with R56S, I57T
VL: B1 VL with A31T
notes: fully human, Campaign 1

Columns and labels:
[1] = target: T1, mOrai1-hOrai1 ECL2 (AESVIV) protein (human/mouse chimera, UniProt Q8BWG9 1-304 (mouse entry)); assay: FACS, 293EBNA transfectants [D00030 FIG. 16D]
T1 construct: also called Ch
Description: (§1) FIG. 16A-D illustrates the results of FACS analysis showing binding to the indicated mOrai1-hOrai1 ECL2 chimeric mutants expressed on the surface of HEK-293-EBNA cells. Transfected cells were stained first with recombinant monoclonal antibodies then counter-stained with a secondary phycoerythrin-labeled goat (“Gt”) anti-human (“Hu”) IgG F(ab′)₂ antibody fragment and visualized using FACS. In FIG. 16B and FIG. 16D, The values of Relative Fluorescence Intensity as Percent of Control (RFI-POC) are calculated from the relative fluorescence intensity geometric mean (Geo Mean). The geometric mean is an average calculated by multiplying a series of numbers and taking the nth root where n is the number of numbers in the series. It is a statistical average of a set of transformed numbers often used to represent a central tendency in a highly variable data set that minimizes the effects of extreme values.
(§2) Table 11A and Table 11B feature a schematic representation of the POC data from FIG. 16B and FIG. 16D, respectively, where the binding results are recorded as (+++) denoting binding POC from 40% to 100%, (++) for POC of 5% to less than 40%, (+) for POC from 1% to less than 5% and (−) as lack of binding with POC less than 1%.

[2] = target: T2, mOrai1-hOrai1 ECL2 (…) protein (human/mouse chimera, UniProt Q8BWG9 1-304 (mouse entry)); assay: FACS, 293EBNA transfectants [D00030 FIG. 16D]
T2 construct: also called Ch
Description: as §1, §2

[3] = target: T3, hOrai1-mOrai1 ECL2 (PASGAA) protein (human/mouse chimera, UniProt Q96D31 1-301); assay: FACS, 293EBNA; design: concentration or dose not given beside the values
T3 construct: also called Ch
Method: (§3) FACS binding analysis. Transfected 293EBNA cells transiently expressed hOrai1-mOrai1 ECL2 or mOrai1-hOrai1 ECL2 chimera. The transfected cells were harvested at 48 hours post-transfection. Cells transfected with pcDNA3.1 were used as negative controls. Cells were washed once with ice-cold 1×PBS, resuspended in ice-cold FACS buffer (1×D-PBS+2% goat serum), and 2×10⁵ cells in 100 μL were stained per antibody combination. All antibody incubation steps were performed on ice for 1 hour. […] Next, the unlabelled antibody was detected using goat F(ab′)₂ anti-mouse or anti-human IgG-phycoerythrin (IgG-PE), followed by a wash with 200 μL of ice-cold FACS buffer before flow cytometry analysis. Unstained cells and cells stained with detecting antibodies were used as negative controls. The values of relative level of fluorescence were calculated using FCS Express (De Novo Software) and mean values were calculated using log-transformed data (geometric mean). The results of the FACS analysis are shown in FIG. 15A-B, which supports the conclusion that the hOrai1 ECL2 domain is the region of hOrai1 where antibodies of the present invention bind.
(§4) Representative results of FACS analysis of binding to the mutant hOrai1-mOrai1 ECL2 chimera described above by exemplary anti-hOrai1 antibodies of the present invention are shown in FIG. 17A-D, Table 10A and Table 10B below. Table 10A (Campaign 1) and Table 10B (Campaign 2) show the gain in binding ability of exemplary monoclonal antibodies to hOrai 1-mOrai 1 ECL2 chimera mutants as determined by FACS.

[4] = target: T4, hOrai1-mOrai1 ECL2 (VST) protein (human/mouse chimera, UniProt Q96D31 1-301); assay: FACS, 293EBNA; design: concentration or dose not given beside the values
T4 construct: also called Ch
Method: as §3, §4

[5] = target: T5, hOrai1-mOrai1 ECL2 (GAA) protein (human/mouse chimera, UniProt Q96D31 1-301); assay: FACS, 293EBNA; design: concentration or dose not given beside the values
T5 construct: also called Ch
Method: as §3, §4

[6] = target: T6, hOrai1-mOrai1 ECL2 (AANVST) protein (human/mouse chimera, UniProt Q96D31 1-301); assay: FACS, 293EBNA; design: concentration or dose not given beside the values
T6 construct: also called Ch
Method: as §3, §4

[7] = target: T7, hOrai1-mOrai1 ECL2 (…) protein (human/mouse chimera, UniProt Q96D31 1-301); assay: FACS, 293EBNA; design: concentration or dose not given beside the values
T7 construct: also called Ch
Method: as §3, §4
T7 sequence (Q96D31 other isoform, or with tags, fused parts or gaps): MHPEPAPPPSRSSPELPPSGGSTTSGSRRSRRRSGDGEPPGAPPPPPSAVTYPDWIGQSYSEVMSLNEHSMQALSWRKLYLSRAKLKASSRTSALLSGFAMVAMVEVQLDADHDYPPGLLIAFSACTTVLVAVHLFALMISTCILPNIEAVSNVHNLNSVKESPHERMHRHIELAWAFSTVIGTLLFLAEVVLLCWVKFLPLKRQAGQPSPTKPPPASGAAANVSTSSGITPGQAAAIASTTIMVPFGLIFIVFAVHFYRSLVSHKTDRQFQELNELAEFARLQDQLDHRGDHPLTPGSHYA

[8] = target: T8, hOrai1-mOrai1 ECL2 chimeric protein (human/mouse chimera, UniProt Q96D31 1-301); assay: FACS, 293EBNA; design: concentration or dose not given beside the values
T8 construct: human Orai1 with mouse ECL2; also called Ch
Method: as §3, §4

human Orai1 [9] = target: T9, human Orai1 (human, UniProt Q96D31 1-301); assay: cell-based or functional assay
[10] = target: T10, hOrai1-mOrai1 ECL2 (SKPPA) protein (human/mouse chimera, UniProt Q96D31 1-301); assay: FACS, 293EBNA, RFI-POC grade; design: concentration or dose not given beside the values
T10 construct: also called Ch

[11] = target: T11, hOrai1-mOrai1 ECL2 (…) protein (human/mouse chimera, UniProt Q96D31 1-301); assay: FACS, 293EBNA, RFI-POC grade; design: concentration or dose not given beside the values
T11 construct: also called Ch
T11 sequence (Q96D31 other isoform, or with tags, fused parts or gaps): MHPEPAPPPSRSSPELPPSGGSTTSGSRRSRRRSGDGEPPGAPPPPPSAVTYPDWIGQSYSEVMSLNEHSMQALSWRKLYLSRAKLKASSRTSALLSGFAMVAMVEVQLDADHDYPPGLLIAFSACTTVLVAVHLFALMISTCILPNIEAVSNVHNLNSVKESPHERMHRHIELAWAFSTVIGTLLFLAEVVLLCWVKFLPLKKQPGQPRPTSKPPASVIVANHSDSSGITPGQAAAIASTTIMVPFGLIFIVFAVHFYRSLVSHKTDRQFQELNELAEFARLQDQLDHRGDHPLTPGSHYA

[12] = target: T12, hOrai1-mOrai1 ECL2 (…) protein (human/mouse chimera, UniProt Q96D31 1-301); assay: FACS, 293EBNA, RFI-POC grade; design: concentration or dose not given beside the values; remark: listed apart in the source
T12 construct: also called Ch
T12 sequence (Q96D31 other isoform, or with tags, fused parts or gaps): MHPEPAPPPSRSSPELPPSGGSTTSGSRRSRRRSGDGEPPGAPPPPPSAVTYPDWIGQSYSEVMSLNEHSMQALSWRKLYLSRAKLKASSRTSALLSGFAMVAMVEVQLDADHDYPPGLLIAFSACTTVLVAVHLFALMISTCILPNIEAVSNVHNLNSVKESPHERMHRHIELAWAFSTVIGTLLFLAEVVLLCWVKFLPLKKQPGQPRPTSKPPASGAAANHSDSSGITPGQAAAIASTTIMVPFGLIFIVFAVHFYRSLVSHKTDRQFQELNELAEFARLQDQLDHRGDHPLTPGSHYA

[13] = target: T13, mOrai1-hOrai1 ECL2 chimeric protein (human/mouse chimera, UniProt Q8BWG9 1-304 (mouse entry)); assay: FACS, 293EBNA, RFI-POC grade; design: concentration or dose not given beside the values
T13 construct: mouse Orai1 with human ECL2; also called Ch

[14] = target: T14, hOrai1-mOrai1 ECL2 (RPTSKPPA) protein (human/mouse chimera, UniProt Q96D31 1-301); assay: FACS, 293EBNA, RFI-POC grade; design: concentration or dose not given beside the values
T14 construct: also called Ch

[15] = target: T15, hOrai1-mOrai1 ECL2 (…) protein (human/mouse chimera, UniProt Q96D31 1-301); assay: FACS, 293EBNA, RFI-POC grade; design: concentration or dose not given beside the values; remark: listed apart in the source
T15 construct: also called Ch
T15 sequence (Q96D31 other isoform, or with tags, fused parts or gaps): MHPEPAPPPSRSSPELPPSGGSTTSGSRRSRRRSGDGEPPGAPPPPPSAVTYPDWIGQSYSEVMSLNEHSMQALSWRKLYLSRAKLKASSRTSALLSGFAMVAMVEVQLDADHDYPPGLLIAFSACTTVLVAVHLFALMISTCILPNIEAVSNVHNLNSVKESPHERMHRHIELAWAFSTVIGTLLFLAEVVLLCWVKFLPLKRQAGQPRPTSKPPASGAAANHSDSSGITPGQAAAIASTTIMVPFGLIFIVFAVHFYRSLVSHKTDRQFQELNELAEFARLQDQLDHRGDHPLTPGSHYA

human Orai1 [16] = target: T9, human Orai1; assay: cell-based or functional assay; remark: listed apart in the source
[17] = target: T1, mOrai1-hOrai1 ECL2 (AESVIV) protein; assay: FACS, 293EBNA transfectants [D00028 FIG. 16B]
Description: as §1, §2

[18] = target: T2, mOrai1-hOrai1 ECL2 (…) protein; assay: FACS, 293EBNA transfectants [D00028 FIG. 16B]
Description: as §1, §2

T9 sequence (Q96D31 whole entry): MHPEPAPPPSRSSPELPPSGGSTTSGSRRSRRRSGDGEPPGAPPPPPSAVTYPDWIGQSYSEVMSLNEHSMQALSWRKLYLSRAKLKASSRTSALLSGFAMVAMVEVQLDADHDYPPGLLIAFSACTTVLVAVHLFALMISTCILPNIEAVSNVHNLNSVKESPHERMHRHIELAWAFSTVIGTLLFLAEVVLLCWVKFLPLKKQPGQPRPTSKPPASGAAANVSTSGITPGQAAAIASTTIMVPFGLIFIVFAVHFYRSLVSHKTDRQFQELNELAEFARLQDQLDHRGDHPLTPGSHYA
T13 sequence (Q8BWG9 other isoform, or with tags, fused parts or gaps mutant): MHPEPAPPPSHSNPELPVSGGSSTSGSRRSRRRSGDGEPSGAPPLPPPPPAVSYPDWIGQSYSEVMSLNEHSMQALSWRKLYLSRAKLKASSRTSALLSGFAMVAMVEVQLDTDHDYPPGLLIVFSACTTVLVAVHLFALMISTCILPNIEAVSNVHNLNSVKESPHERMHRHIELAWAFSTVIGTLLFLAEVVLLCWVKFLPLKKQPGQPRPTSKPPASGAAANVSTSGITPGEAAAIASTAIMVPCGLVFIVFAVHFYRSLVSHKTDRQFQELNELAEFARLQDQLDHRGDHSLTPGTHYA
T6 sequence (Q96D31 other isoform, or with tags, fused parts or gaps): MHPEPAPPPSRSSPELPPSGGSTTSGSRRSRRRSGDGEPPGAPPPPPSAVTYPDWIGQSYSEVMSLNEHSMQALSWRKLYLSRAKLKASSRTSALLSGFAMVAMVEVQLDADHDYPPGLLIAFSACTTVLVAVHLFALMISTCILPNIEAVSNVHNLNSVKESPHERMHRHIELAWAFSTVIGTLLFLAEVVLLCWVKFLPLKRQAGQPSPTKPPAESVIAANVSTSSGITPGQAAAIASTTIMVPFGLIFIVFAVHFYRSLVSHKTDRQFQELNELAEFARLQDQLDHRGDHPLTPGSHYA
T8 sequence (Q96D31 other isoform, or with tags, fused parts or gaps mutant): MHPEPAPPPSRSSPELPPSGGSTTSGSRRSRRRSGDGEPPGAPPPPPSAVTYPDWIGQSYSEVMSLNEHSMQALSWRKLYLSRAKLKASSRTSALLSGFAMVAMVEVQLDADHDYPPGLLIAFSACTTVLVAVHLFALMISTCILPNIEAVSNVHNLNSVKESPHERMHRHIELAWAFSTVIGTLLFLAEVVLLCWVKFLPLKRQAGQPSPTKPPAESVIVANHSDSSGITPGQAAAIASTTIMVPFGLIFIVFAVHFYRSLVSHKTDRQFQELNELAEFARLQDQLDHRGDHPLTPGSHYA
T10 sequence (Q96D31 other isoform, or with tags, fused parts or gaps): as the sequence (Q96D31 other isoform, or with tags, fused parts or gaps mutant) above, with K213S, P214K, A216P, E217A counted along it
T5 sequence (Q96D31 other isoform, or with tags, fused parts or gaps): as the sequence (Q96D31 other isoform, or with tags, fused parts or gaps mutant) above, with V219G, I220A, V221A counted along it
T3 sequence (Q96D31 other isoform, or with tags, fused parts or gaps): as the sequence (Q96D31 other isoform, or with tags, fused parts or gaps mutant) above, with A216P, E217A, V219G, I220A, V221A counted along it
T4 sequence (Q96D31 other isoform, or with tags, fused parts or gaps): as the sequence (Q96D31 other isoform, or with tags, fused parts or gaps mutant) above, with H224V, D226T counted along it
T14 sequence (Q96D31 other isoform, or with tags, fused parts or gaps): as the sequence (Q96D31 other isoform, or with tags, fused parts or gaps mutant) above, with S210R, K213S, P214K, A216P, E217A counted along it
T1 sequence (Q8BWG9 other isoform, or with tags, fused parts or gaps): as the sequence (Q8BWG9 other isoform, or with tags, fused parts or gaps mutant) above, with P218A, A219E, G221V, A222I, A223V counted along it
T2 sequence (Q8BWG9 other isoform, or with tags, fused parts or gaps): as the sequence (Q8BWG9 other isoform, or with tags, fused parts or gaps mutant) above, with P218A, A219E, G221V, A222I, A223V, V226H, T228D counted along it

| Binder | percent of control (POC) of FACS Geo Mean [3] | percent of control (POC) of FACS Geo Mean [4] | percent of control (POC) of FACS Geo Mean [5] | percent of control (POC) of FACS Geo Mean [6] | percent of control (POC) of FACS Geo Mean [7] | percent of control (POC) of FACS Geo Mean [8] | IC50, NFAT-mediated luciferase assay (FIG. 6B) (human Orai1 [9]) | IC50, NFAT-mediated luciferase assay (FIG. 6C) (human Orai1 [9]) | percent of control (POC) of FACS Geo Mean [10] | percent of control (POC) of FACS Geo Mean [11] | percent of control (POC) of FACS Geo Mean [12] | percent of control (POC) of FACS Geo Mean [13] | percent of control (POC) of FACS Geo Mean [14] | percent of control (POC) of FACS Geo Mean [15] | IC50 IFN-γ, whole blood Donor A (human Orai1 [16]) | IC50 IFN-γ, whole blood Donor B (human Orai1 [16]) | IC50 IL-2, whole blood Donor A (human Orai1 [16]) | IC50 IL-2, whole blood Donor B (human Orai1 [16]) | further results |
| --- | --- | --- | --- | --- | --- | --- | --- | --- | --- | --- | --- | --- | --- | --- | --- | --- | --- | --- | --- |
| B1 | < 1% | < 1% | < 1% | < 1% | < 1% | < 1% | 2.8 nM | 2.7 nM | 5 to 40% | 40 to 100% | 40 to 100% | 40 to 100% | 40 to 100% | 40 to 100% | 1.98 nM | 2.06 nM | 1.31 nM | 1.16 nM | binding result [1]: binds; binding result [2]: binds |
| B2 | < 1% | < 1% | < 1% | < 1% | < 1% | < 1% | 4.2 nM | 3.5 nM | 5 to 40% | 40 to 100% | 40 to 100% | 40 to 100% | 40 to 100% | 40 to 100% | 4.6 nM | 14 nM | 3.5 nM | 4.67 nM | binding result [17]: binds; binding result [18]: binds |
